Legend:
COC(=O)Nc1nc2ccccc2[nH]1 = experiment: purified protein, by the assay type; conditions: other: purified MheI, 1-40 μM carbendazim, 200 mM sodium phosphate buffer, 22° C.
Method: (§1) Enzyme assays were performed in 96 well microtiter plates (Agilent catalogue number) at 22° C. The assay mixture typically contained 20 μg bovine serum albumin, 0.022 μg purified MheI and 1-40 μM carbendazim in a final volume of 200 μl of 200 mM sodium phosphate buffer. Enzymatic reaction was stopped by adding 5 μl of formic acid after 10 minutes and the initial velocities were measured using HPLC. All these assays were performed in triplicate.

MheI = MheI (Nocardioides sp., UniProt C8CP46); experiment: Enzyme assays and determination of kinetic constants of purified MheI (HPLC); conditions: 1-40 μM carbendazim, 200 mM sodium phosphate buffer, 22° C.
Chain of MheI (C8CP46 whole entry): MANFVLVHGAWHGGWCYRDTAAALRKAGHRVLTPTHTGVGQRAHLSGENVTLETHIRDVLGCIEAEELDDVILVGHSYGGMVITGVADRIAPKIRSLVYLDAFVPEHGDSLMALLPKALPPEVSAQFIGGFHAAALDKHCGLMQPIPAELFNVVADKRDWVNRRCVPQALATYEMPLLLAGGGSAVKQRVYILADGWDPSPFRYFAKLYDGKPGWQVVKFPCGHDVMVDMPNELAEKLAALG
Method: as §1

Compound | Km (COC(=O)Nc1nc2ccccc2[nH]1) [µM] | kcat (COC(=O)Nc1nc2ccccc2[nH]1) [per second] | Km (MheI) [µM]
MheI (Nocardioides sp. SG-4G) | 6.1 | 120 | –
COC(=O)Nc1nc2ccccc2[nH]1 [carbendazim] | – | – | 6.1

Source: patent publication US8278063B2, “Methods for degrading toxic compounds” (Commonwealth Scientific and Industrial Research Organisation, priority 2007, dated 2012)
